Measured values reported in PMC7271239, “Structural and catalytic analysis of two diverse uridine phosphorylases in Phytophthora capsici” (Scientific Reports, 2020).

T1: PcUP1 (Phytophthora capsici, UniProt A0A410UCT3)
T1 construct: gene up; homodimer, active site at the dimer interface (His19 and Arg59 from the neighbouring monomer)
T1 sequence (A0A410UCT3 1-296): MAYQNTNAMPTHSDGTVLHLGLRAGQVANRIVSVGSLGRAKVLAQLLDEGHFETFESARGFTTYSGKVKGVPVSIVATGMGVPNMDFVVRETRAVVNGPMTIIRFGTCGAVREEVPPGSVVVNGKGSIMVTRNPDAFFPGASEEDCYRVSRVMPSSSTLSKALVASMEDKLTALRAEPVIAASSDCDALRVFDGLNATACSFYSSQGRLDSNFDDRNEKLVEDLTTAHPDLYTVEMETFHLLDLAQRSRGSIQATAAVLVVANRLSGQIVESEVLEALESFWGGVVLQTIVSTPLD

B1: PcUP2 (Phytophthora capsici) (protein)
chain: MAPNMDAVADATAQVHVRNSHILEMHSDVLFHIGLTCSQEERQQVANTFGDVKFFITGGSAERMTHFAQSVAKELGITTPYGYQLAPIGSTSRYTLFKVGPVLVANHGIGMPSISILLHEVTKLLEYAGAHGATYIRMGTSGGIGVEPGTVVITSEGVNNKLESVDEVAVLGSTVRRPSICSPEVREEIITAAKEVGLPYAVGKTLSCNDFYEGQGRLDGAICEYTLEDKMAFLQKLADAGVRNIEMEARLMAGFCHKLNIPVAVVCVTLLNRLNGDQVLSSHETLQDFERRPGAVLLHYIKSKVNASA
B2: PcUP1 (Phytophthora capsici) (protein)
chain: T1 sequence (A0A410UCT3 1-296)
notes: homodimer, active site at the dimer interface (His19 and Arg59 from the neighbouring monomer)

How the values were obtained:
[1] = target: T1, PcUP1; assay: X-ray crystal structure, […] Å; type: binding; details: with 2'-deoxyuridine (also with thymidine, 6K8P); phosphate site; crystals grown in phosphate
[2] = substrate: O=c1ccn([C@@H]2O[C@H](CO)[C@@H](O)[C@H]2O)c(=O)[nH]1; assay: HPLC of uracil formed, Michaelis-Menten fit; type: biochemical, Phytophthora capsici; details: phosphorolysis, uridine 0.25-5 mM, 10 mM Na2HPO4, pH 7.5, 25 °C, kcat assumes Et = 2

Molecule	X-ray crystal structure, 2.1 Å [1]	Km [2] [mM]	kcat [2] [s⁻¹]
O=P(O)(O)O [phosphate]	Arg59 is an important residue in the phosphate-bonding pocket, forming two hydrogen bonds		
B1		7.55 ± 0.6	1188 ± 90
B2		6.96 ± 1.52	982 ± 152
